Assay results taken from patent US20250205190A1, “NUTRITIONAL COMPOSITION” (N.V. NUTRICIA, priority 2022, published 2025).

Assays:
Experiment in all cases: i-screen in vitro colon microbiota model, fermentation of infant faecal pool, 16S rRNA sequencing
Type in all cases: cell-based
Details in all cases: t = 24 hours anaerobic fermentation, SIEM medium, 37° C., triplicate, ingredient conc. per Table 1
[1] = test system: Bacteroidaceae
Description: (§1) In an in vitro colon microbiota model, i-screen™ (TNO, Zeist, Netherlands), the effect of infant milk formula ingredients on the anaerobic fermentation of infant microbiota was assessed.
(§2) The in vitro microbiota model mimics colonic conditions. Before a consumed ingredient reaches the colon in a human, already a part of the digestion/absorption has taken place in the gastrointestinal tract preceding the colon. For each ingredient the degree of digestion/absorption before reaching the colon varies and this was taken into account when selecting the ingredient concentrations to be tested (see Table 1).
(§3) The infant faecal pool consisted of samples obtained from faeces of 5 European infants aged 3.5-8.5 months. The samples were thawed, homogenized, aliquoted and stored at −80° C. till the start of the i-screen assay run.
(§4) • Before starting the fermentation with the test ingredients. The infant fecal pool was incubated in an anaerobic flask for 4 hours in SIEM (simulated ileal environment media) medium (pH 5.8) under anaerobic conditions (37° C.; 300 rpm). Subsequently this SIEM medium with feces was homogenized and distributed into a 96 w-plate. • The test ingredients were pre-diluted in a higher concentration in fresh SIEM medium and added to the existing medium in the 96 wells plate. For milk fat the addition method was slightly adapted, milk fat was added to fresh SIEM medium at 45° C., subsequently thoroughly homogenized, followed by addition to the wells in the 96 w plate. • The i-screen experiment included an untreated control (microbiota only), an positive control (Inulin, Raftiline ST), blanks (SIEM medium only) and technical controls (internal controls for DNA isolation and sequencing). • Each test condition was conducted in triplicate. • After 24 hours of fermentation in SIEM medium under anaerobic conditions at 37° C., samples were collected for DNA analyses. […]
(§5) Changes in the microbiota composition were analyzed by using 16S rDNA amplicon sequencing. […] Amplicon quality and size were analyzed on a Fragment Analyzer (Advanced Analytical Technologies, Inc.). […]

[2] = test system: Bifidobacteriaceae
Description: as §1, §2, §3, §4, §5

[3] = test system: Enterobacteriaceae
Description: as §1, §2, §3, §4, §5

B1: Lactoferrin (protein, UniProt P24627 20-708, looked up)
Lactotransferrin: APRKNVRWCTISQPEWFKCRRWQWRMKKLGAPSITCVRRAFALECIRAIAEKKADAVTLDGGMVFEAGRDPYKLRPVAAEIYGTKESPQTHYYAVAVVKKGSNFQLDQLQGRKSCHTGLGRSAGWIIPMGILRPYLSWTESLEPLQGAVAKFFSASCVPCIDRQAYPNLCQLCKGEGENQCACSSREPYFGYSGAFKCLQDGAGDVAFVKETTVFENLPEKADRDQYELLCLNNSRAPVDAFKECHLAQVPSHAVVARSVDGKEDLIWKLLSKAQEKFGKNKSRSFQLFGSPPGQRDLLFKDSALGFLRIPSKVDSALYLGSRYLTTLKNLRETAEEVKARYTRVVWCAVGPEEQKKCQQWSQQSGQNVTCATASTTDDCIVLVLKGEADALNLDGGYIYTAGKCGLVPVLAENRKSSKHSSLDCVLRPTEGYLAVAVVKKANEGLTWNSLKDKKSCHTAVDRTAGWNIPMGLIVNQTGSCAFDEFFSQSCAPGADPKSRLCALCAGDDQGLDKCVPNSKEKYYGYTGAFRCLAEDVGDVAFVKNDTVWENTNGESTADWAKNLNREDFRLLCLDGTRKPVTEAQSCHLAVAPNHAVVSRSDRAAHVKQVLLHQQALFGKNGKNCPDKFCLFKSETKNLLFNDNTECLAKLGGRPTYEEYLGTEYVTAIANLKKCSTSPLLEACAFLTR
notes: Friesland Campina, Vivinal Lactoferrin, comprises 96 wt. % lactoferrin; 2 mg/ml in well
For B1, the “Average relative abundance (%) [st. dev] Bacteroidaceae” value [1] was 19.81 (0.48) %, the “Average relative abundance (%) [st. dev] Bifidobacteriaceae” value [2] was 9.39 (1.50) % and the “Average relative abundance (%) [st. dev] Enterobacteriaceae” value [3] was 41.73 (1.64) %.
